Assays:
[1] = molecular target: Spike S2 ECD (SARS-CoV-2) (UniProt P0DTC2); assay: filter; details: Y=Tyr-dU, p=Nap-dC
[2] = molecular target: Spike S1 (SARS-CoV-2) (UniProt P0DTC2); assay: filter
[3] = molecular target: Spike RBD-mFc (ACE2 inhibition assay) (SARS-CoV-2) (UniProt P0DTC2); assay: inhibition; details: Y=Tyr-dU, p=Nap-dC; printed CCTTGGGAYApYAYGpGYppGAppGpYpGGApGGAGAAGG [Tyr-dU: 9,12,14,18,27; Nap-dC: 11,16,19,20,23,24,26,28,32]
[4] = molecular target: Spike RBD (SARS-CoV-2) (UniProt P0DTC2); assay: filter; details: P=Nap-dU
[5] = molecular target: Spike S1 & S2 ECD (SARS-CoV-2) (UniProt P0DTC2); assay: filter
[6] = molecular target: authentic SARS-CoV-2 virus (VIC01, Clade B) spike (SARS-CoV-2) (UniProt P0DTC2); assay: cell_activity; details: Y=Tyr-dU, p=Nap-dC; printed GGGAYApYAYGpGYppGAppGpYpGGApG [Tyr-dU: 5,8,10,14,23; Nap-dC: 7,12,15,16,19,20,22,24,28]
[7] = Y=Tyr-dU, p=Nap-dC, SB18T0.01, 37 C

In the case of “CCTTGCAGGCGGCACATGGCACTTCATATCGAGCGGAAGG [26876-3_4 (SL1114)]”, the Kd ([1]; printed CCTTGpAGGpGGpApAYGGpApYYpAYAYpGAGpGGAAGG [Nap-dC: 6,10,13,15,20,22,25,30,34, Tyr-dU: 17,23,24,27,29]) is reported as 0.37 nM.
For “CCTTGGGATACTATGCGTCCGACCGCTCGGACGGAGAAGG [26874-29_4 (SL1111)]”, the Kd ([2]; Y=Tyr-dU, p=Nap-dC, printed CCTTGGGAYApYAYGpGYppGAppGpYpGGApGGAGAAGG [Tyr-dU: 9,12,14,18,27, Nap-dC: 11,16,19,20,23,24,26,28,32]) was 3.2 nM and the EC50 [3] was 4.2 nM.
“CCTTGTGCAACGCACCTTATTCGGCTTGAATGTGAGAAGG [26876-13_4 (SL1115)]” was tested, and the Kd ([1]; printed CCTTGYGpAApGpAppYYAYYpGGpYYGAAYGYGAGAAGG [Nap-dC: 8,11,13,15,16,22,25, Tyr-dU: 6,17,18,20,21,26,27,31,33]) was 0.19 nM.
“GCATCATCTCCCAGCTAATGAGTGTCTGAATTGGACTGGTCCTCTGGGGA [26860-75_3 (SL1107)]” was tested, and the Kd ([4]; printed GCATCAPCPCCCAGCPAAPGAGPGPCPGAAPPGGACPGGPCCPCPGGGGA [7,9,16,19,23,25,27,31,32,37,40,43,45]) was 0.23 nM and the Kd ([2]; P=Nap-dU, printed GCATCAPCPCCCAGCPAAPGAGPGPCPGAAPPGGACPGGPCCPCPGGGGA [7,9,16,19,23,25,27,31,32,37,40,43,45]) was 2.8 nM.
“GCATCGGAATGAATGTCTGCCTTGCACTGGTGCGGTCCGATTGTGAGGGA [26860-16_3 (SL1108)]” gave a Kd ([4]; printed GCATCGGAAPGAAPGPCPGCCPPGCACPGGPGCGGPCCGAPPGPGAGGGA [Nap-dU at 10,14,16,18,22,23,28,31,36,41,42,44]) of 0.061 nM and a Kd ([2]; P=Nap-dU, printed GCATCGGAAPGAAPGPCPGCCPPGCACPGGPGCGGPCCGAPPGPGAGGGA [Nap-dU at 10,14,16,18,22,23,28,31,36,41,42,44]) of 0.48 nM.
“GGGANANNANGNGNNNGANNGNNNGGANG [26874-29_112]” showed a Kd ([5]; MOEdU at 14, other dU Tyr-dU, dC Nap-dC, SB18T0.01, 37 C) of 0.56 nM.
Sequence “GGGANANNANGNGNNNGANNGNNNGGANG [26874-29_113]” has a Kd ([5]; 2NapdU at 14, other dU Tyr-dU, dC Nap-dC, SB18T0.01, 37 C) of 0.32 nM.
Sequence “GGGANANNANGNGNNNGANNGNNNGGANG [26874-29_114]” has a Kd ([5]; MOEdU at 23, other dU Tyr-dU, dC Nap-dC, SB18T0.01, 37 C) of 0.81 nM.
“GGGANANNANGNGNNNGANNGNNNGGANG [26874-29_115]” gave a Kd ([5]; 2NapdU at 23, other dU Tyr-dU, dC Nap-dC, SB18T0.01, 37 C) of 0.46 nM.
“GGGANANNANGNGNNNGANNGNNNGGANG [26874-29_116]” showed a Kd ([5]; BTdU at 5, other dU Tyr-dU, dC Nap-dC, low plateau) of 0.53 nM.
For “GGGANANNANGNGNNNGANNGNNNGGANG [26874-29_117]”, the Kd ([5]; POPdU at 5, other dU Tyr-dU, dC Nap-dC, SB18T0.01, 37 C) was 0.42 nM.
“GGGANANNANGNGNNNGANNGNNNGGANG [26874-29_118]” was tested, and the Kd ([5]; BTdU at 8, other dU Tyr-dU, dC Nap-dC, SB18T0.01, 37 C) was 0.39 nM.
Sequence “GGGANANNANGNGNNNGANNGNNNGGANG [26874-29_119]” has a Kd ([5]; Y=Tyr-dU, p=Nap-dC, position 8 POP-dU, value curated as assigned, Kd/Kd_20 1656) of 500 nM.
With “GGGANANNANGNGNNNGANNGNNNGGANG [26874-29_120]” the Kd ([5]; BTdU at 10, other dU Tyr-dU, dC Nap-dC, SB18T0.01, 37 C) was 0.24 nM.
Work on “GGGANANNANGNGNNNGANNGNNNGGANG [26874-29_121]” yielded a Kd ([5]; POPdU at 10, other dU Tyr-dU, dC Nap-dC, low plateau) of 0.42 nM.
With “GGGANANNANGNGNNNGANNGNNNGGANG [26874-29_122]” the Kd ([5]; BTdU at 14, other dU Tyr-dU, dC Nap-dC, SB18T0.01, 37 C) was 0.16 nM.
“GGGANANNANGNGNNNGANNGNNNGGANG [26874-29_123]” gave a Kd ([5]; Y=Tyr-dU, p=Nap-dC, position 14 POP-dU, value curated as assigned, Kd/Kd_20 1656) of 500 nM.
Work on “GGGANANNANGNGNNNGANNGNNNGGANG [26874-29_124]” yielded a Kd ([5]; BTdU at 23, other dU Tyr-dU, dC Nap-dC, SB18T0.01, 37 C) of 0.64 nM.
Work on “GGGANANNANGNGNNNGANNGNNNGGANG [26874-29_125]” yielded a Kd ([5]; POPdU at 23, other dU Tyr-dU, dC Nap-dC, low plateau) of 0.37 nM.
Sequence “GGGANANNANGNGNNNGANNGNNNGGANG [26874-29_126]” has a Kd ([5]; 2NEdU at 5, other dU Tyr-dU, dC Nap-dC, low plateau) of 0.65 nM.
Sequence “GGGANANNANGNGNNNGANNGNNNGGANG [26874-29_128]” has a Kd ([5]; Y=Tyr-dU, p=Nap-dC, position 8 2NE-dU, value curated as assigned, Kd/Kd_20 1656) of 500 nM.
“GGGANANNANGNGNNNGANNGNNNGGANG [26874-29_130]” showed a Kd ([5]; 2NEdU at 10, other dU Tyr-dU, dC Nap-dC, SB18T0.01, 37 C) of 0.28 nM.
“GGGANANNANGNGNNNGANNGNNNGGANG [26874-29_132]” was tested, and the Kd ([5]; 2NEdU at 14, other dU Tyr-dU, dC Nap-dC, SB18T0.01, 37 C) was 0.27 nM.
With “GGGANANNANGNGNNNGANNGNNNGGANG [26874-29_134]” the Kd ([5]; Y=Tyr-dU, p=Nap-dC, position 23 2NE-dU, very low plateau, faint spots) was 0.12 nM.
“GGGANANNANGNGNNNGANNGNNNGGANG [26874-29_136]” showed a Kd ([5]; iBudU at 5, other dU Tyr-dU, dC Nap-dC, SB18T0.01, 37 C) of 0.57 nM.
Sequence “GGGANANNANGNGNNNGANNGNNNGGANG [26874-29_138]” has a Kd ([5]; iBudU at 8, other dU Tyr-dU, dC Nap-dC, SB18T0.01, 37 C) of 0.59 nM.
In the case of “GGGANANNANGNGNNNGANNGNNNGGANG [26874-29_140]”, the Kd ([5]; iBudU at 10, other dU Tyr-dU, dC Nap-dC, SB18T0.01, 37 C) is reported as 0.47 nM.
“GGGANANNANGNGNNNGANNGNNNGGANG [26874-29_142]” was tested, and the Kd ([5]; iBudU at 14, other dU Tyr-dU, dC Nap-dC, SB18T0.01, 37 C) was 0.37 nM.
“GGGANANNANGNGNNNGANNGNNNGGANG [26874-29_144]” was tested, and the Kd ([5]; iBudU at 23, other dU Tyr-dU, dC Nap-dC, SB18T0.01, 37 C) was 0.57 nM.
“GGGANANNANGNGNNNGANNGNNNGGANG [26874-29_146]” was tested, and the Kd ([5]; MBndU at 5, other dU Tyr-dU, dC Nap-dC, low plateau) was 0.61 nM.
“GGGANANNANGNGNNNGANNGNNNGGANG [26874-29_147]” showed a Kd ([5]; BPEdU at 5, other dU Tyr-dU, dC Nap-dC, assigned, low plateau) of 0.44 nM.
Sequence “GGGANANNANGNGNNNGANNGNNNGGANG [26874-29_148]” has a Kd ([5]; MBndU at 8, other dU Tyr-dU, dC Nap-dC, low plateau) of 0.46 nM.
For “GGGANANNANGNGNNNGANNGNNNGGANG [26874-29_149]”, the Kd ([5]; BPEdU at 8, other dU Tyr-dU, dC Nap-dC, low plateau) was 0.47 nM.
“GGGANANNANGNGNNNGANNGNNNGGANG [26874-29_150]” was tested, and the Kd ([5]; Y=Tyr-dU, p=Nap-dC, position 10 MBn-dU, Kd/Kd_20 38) was 16 nM.
“GGGANANNANGNGNNNGANNGNNNGGANG [26874-29_151]” was tested, and the Kd ([5]; BPEdU at 10, other dU Tyr-dU, dC Nap-dC, SB18T0.01, 37 C) was 0.78 nM.
“GGGANANNANGNGNNNGANNGNNNGGANG [26874-29_152]” was tested, and the Kd ([5]; MBndU at 14, other dU Tyr-dU, dC Nap-dC, SB18T0.01, 37 C) was 0.33 nM.
“GGGANANNANGNGNNNGANNGNNNGGANG [26874-29_153]” was tested, and the Kd ([5]; Y=Tyr-dU, p=Nap-dC, position 14 BPE-dU, Kd/Kd_20 0.28) was 0.11 nM.
In the case of “GGGANANNANGNGNNNGANNGNNNGGANG [26874-29_154]”, the Kd ([5]; MBndU at 23, other dU Tyr-dU, dC Nap-dC, SB18T0.01, 37 C) is reported as 0.43 nM.
For “GGGANANNANGNGNNNGANNGNNNGGANG [26874-29_155]”, the Kd ([5]; BPEdU at 23, other dU Tyr-dU, dC Nap-dC, SB18T0.01, 37 C) was 0.17 nM.
“GGGANANNANGNGNNNGANNGNNNGGANG [OH-26874-29_181]” gave a Kd ([5]; 2Nap-dC at 7, other dC Nap-dC, dU Tyr-dU) of 0.2 nM.
“GGGANANNANGNGNNNGANNGNNNGGANG [OH-26874-29_182]” showed a Kd ([5]; 2Nap-dC at 12, other dC Nap-dC, dU Tyr-dU) of 0.41 nM.
Sequence “GGGANANNANGNGNNNGANNGNNNGGANG [OH-26874-29_315]” has a Kd ([5]; Y=Tyr-dU, p=Nap-dC, position 12 PBn-dC, protein construct inferred) of 0.16 nM.
Sequence “GGGANANNANGNGNNNGANNGNNNGGANG [OH-26874-29_328]” has a Kd ([5]; Y=Tyr-dU, p=Nap-dC, position 20 DPP-dC) of 0.038 nM.
In the case of “GGGANANNANGNGNNNGANNGNNNGGANG [OH-26874-29_330]”, the Kd ([5]; Y=Tyr-dU, p=Nap-dC, position 24 DPP-dC, protein construct inferred) is reported as 0.11 nM.
Work on “GGGANANNANGNGNNNGANNGNNNGGANG [OH-26874-29_331]” yielded a Kd ([5]; Y=Tyr-dU, p=Nap-dC, position 28 DPP-dC, protein construct inferred) of 0.13 nM.
With “GGGANANNANGNGNNNGANNGNNNGGANG [OH-26874-29_332]” the Kd ([5]; Y=Tyr-dU, p=Nap-dC, position 7 DCPE-dC, protein construct inferred) was 0.13 nM.
Work on “GGGANANNANGNGNNNGANNGNNNGGANG [OH-26874-29_333]” yielded a Kd ([5]; Y=Tyr-dU, p=Nap-dC, position 12 DCPE-dC, protein construct inferred) of 0.11 nM.
“GGGANANNANGNGNRNGANNGNNNGGANG [OH-26874-29_192]” gave a Kd ([5]; Y=Tyr-dU, p=Nap-dC, position 15 PP-dC, protein construct inferred) of 1000 nM.
For “GGGATACTATGCGTCCGACCGCTCGGACG [26874-29_20 (SL1111_20)]”, the IC50 [6] was 1.1 nM.
With “GNGNAANGNANNNNANNNGGNNNGAANGNG [26876-13_15]” the Kd [5, 7] was 0.26 nM.
For NANNANGNGNNNGANNGNNNGGANG [26874-29_24], the Kd [5, 7] was 2.1 nM.
For “NANNANGNGNNNGANNGNNNGGANGG [26874-29_22]”, the Kd [5, 7] was 1.4 nM.
